Experimental data from ChEMBL document CHEMBL1212811, “Chemical phylogenetics of histone deacetylases” (Nat Chem Biol, 2010).

Key:
[1] = substrate: CC(=O)N[C@@H](CC(C)C)C(=O)NCC(=O)N[C@@H](CCCCNC(=O)C(F)(F)F)C(=O)Nc1ccc2c(C)cc(=O)oc2c1; assay: Activity of HDAC7 at 10 uM
[2] = substrate: CC(=O)N[C@@H](CC(C)C)C(=O)NCC(=O)N[C@@H](CCCCNC(=O)C(F)(F)F)C(=O)Nc1ccc2c(C)cc(=O)oc2c1; assay: Activity of HDAC9 at 10 uM
[3] = substrate: CC(=O)NCCCC[C@H](NC(=O)CNC(=O)[C@H](CC(C)C)NC(C)=O)C(=O)Nc1ccc2c(C)cc(=O)oc2c1; settings: 10 uM
[4] = substrate: CC(=O)N[C@@H](CC(C)C)C(=O)NCC(=O)N[C@@H](CCCCNC(=O)C(F)(F)F)C(=O)Nc1ccc2c(C)cc(=O)oc2c1; assay: Activity of HDAC8 at 10 uM
[5] = substrate: CC(=O)N[C@@H](CC(C)C)C(=O)NCC(=O)N[C@@H](CCCCNC(=O)C(F)(F)F)C(=O)Nc1ccc2c(C)cc(=O)oc2c1; assay: Activity of HDAC4 at 10 uM
[6] = substrate: CC(=O)NCCCC[C@H](NC(=O)CNC(=O)[C@H](CC(C)C)NC(C)=O)C(=O)Nc1ccc2c(C)cc(=O)oc2c1; settings: 10 uM; remark: listed apart in the source

B1: Histone deacetylase 7 (Homo sapiens), Q8WUI4 (protein)
chain: MDLRVGQRPPVEPPPEPTLLALQRPQRLHHHLFLAGLQQQRSVEPMRLSMDTPMPELQVGPQEQELRQLLHKDKSKRSAVASSVVKQKLAEVILKKQQAALERTVHPNSPGIPYRTLEPLETEGATRSMLSSFLPPVPSLPSDPPEHFPLRKTVSEPNLKLRYKPKKSLERRKNPLLRKESAPPSLRRRPAETLGDSSPSSSSTPASGCSSPNDSEHGPNPILGSEALLGQRLRLQETSVAPFALPTVSLLPAITLGLPAPARADSDRRTHPTLGPRGPILGSPHTPLFLPHGLEPEAGGTLPSRLQPILLLDPSGSHAPLLTVPGLGPLPFHFAQSLMTTERLSGSGLHWPLSRTRSEPLPPSATAPPPPGPMQPRLEQLKTHVQVIKRSAKPSEKPRLRQIPSAEDLETDGGGPGQVVDDGLEHRELGHGQPEARGPAPLQQHPQVLLWEQQRLAGRLPRGSTGDTVLLPLAQGGHRPLSRAQSSPAAPASLSAPEPASQARVLSSSETPARTLPFTTGLIYDSVMLKHQCSCGDNSRHPEHAGRIQSIWSRLQERGLRSQCECLRGRKASLEELQSVHSERHVLLYGTNPLSRLKLDNGKLAGLLAQRMFVMLPCGGVGVDTDTIWNELHSSNAARWAAGSVTDLAFKVASRELKNGFAVVRPPGHHADHSTAMGFCFFNSVAIACRQLQQQSKASKILIVDWDVHHGNGTQQTFYQDPSVLYISLHRHDDGNFFPGSGAVDEVGAGSGEGFNVNVAWAGGLDPPMGDPEYLAAFRIVVMPIAREFSPDLVLVSAGFDAAEGHPAPLGGYHVSAKCFGYMTQQLMNLAGGAVVLALEGGHDLTAICDASEACVAALLGNRVDPLSEEGWKQKPNLNAIRSLEAVIRVHSKYWGCMQRLASCPDSWVPRVPGADKEEVEAVTALASLSVGILAEDRPSEQLVEEEEPMNL
Km [1]: 19.8 µM

B2: Histone deacetylase 9 (Homo sapiens), Q9UKV0 (protein)
chain: MHSMISSVDVKSEVPVGLEPISPLDLRTDLRMMMPVVDPVVREKQLQQELLLIQQQQQIQKQLLIAEFQKQHENLTRQHQAQLQEHIKELLAIKQQQELLEKEQKLEQQRQEQEVERHRREQQLPPLRGKDRGRERAVASTEVKQKLQEFLLSKSATKDTPTNGKNHSVSRHPKLWYTAAHHTSLDQSSPPLSGTSPSYKYTLPGAQDAKDDFPLRKTASEPNLKVRSRLKQKVAERRSSPLLRRKDGNVVTSFKKRMFEVTESSVSSSSPGSGPSSPNNGPTGSVTENETSVLPPTPHAEQMVSQQRILIHEDSMNLLSLYTSPSLPNITLGLPAVPSQLNASNSLKEKQKCETQTLRQGVPLPGQYGGSIPASSSHPHVTLEGKPPNSSHQALLQHLLLKEQMRQQKLLVAGGVPLHPQSPLATKERISPGIRGTHKLPRHRPLNRTQSAPLPQSTLAQLVIQQQHQQFLEKQKQYQQQIHMNKLLSKSIEQLKQPGSHLEEAEEELQGDQAMQEDRAPSSGNSTRSDSSACVDDTLGQVGAVKVKEEPVDSDEDAQIQEMESGEQAAFMQQPFLEPTHTRALSVRQAPLAAVGMDGLEKHRLVSRTHSSPAASVLPHPAMDRPLQPGSATGIAYDPLMLKHQCVCGNSTTHPEHAGRIQSIWSRLQETGLLNKCERIQGRKASLEEIQLVHSEHHSLLYGTNPLDGQKLDPRILLGDDSQKFFSSLPCGGLGVDSDTIWNELHSSGAARMAVGCVIELASKVASGELKNGFAVVRPPGHHAEESTAMGFCFFNSVAITAKYLRDQLNISKILIVDLDVHHGNGTQQAFYADPSILYISLHRYDEGNFFPGSGAPNEVGTGLGEGYNINIAWTGGLDPPMGDVEYLEAFRTIVKPVAKEFDPDMVLVSAGFDALEGHTPPLGGYKVTAKCFGHLTKQLMTLADGRVVLALEGGHDLTAICDASEACVNALLGNELEPLAEDILHQSPNMNAVISLQKIIEIQSMSLKFS
Km [2]: 37 µM

B3: Protein deacetylase HDAC6 (Homo sapiens), Q9UBN7 (protein)
chain: MTSTGQDSTTTRQRRSRQNPQSPPQDSSVTSKRNIKKGAVPRSIPNLAEVKKKGKMKKLGQAMEEDLIVGLQGMDLNLEAEALAGTGLVLDEQLNEFHCLWDDSFPEGPERLHAIKEQLIQEGLLDRCVSFQARFAEKEELMLVHSLEYIDLMETTQYMNEGELRVLADTYDSVYLHPNSYSCACLASGSVLRLVDAVLGAEIRNGMAIIRPPGHHAQHSLMDGYCMFNHVAVAARYAQQKHRIRRVLIVDWDVHHGQGTQFTFDQDPSVLYFSIHRYEQGRFWPHLKASNWSTTGFGQGQGYTINVPWNQVGMRDADYIAAFLHVLLPVALEFQPQLVLVAAGFDALQGDPKGEMAATPAGFAQLTHLLMGLAGGKLILSLEGGYNLRALAEGVSASLHTLLGDPCPMLESPGAPCRSAQASVSCALEALEPFWEVLVRSTETVERDNMEEDNVEESEEEGPWEPPVLPILTWPVLQSRTGLVYDQNMMNHCNLWDSHHPEVPQRILRIMCRLEELGLAGRCLTLTPRPATEAELLTCHSAEYVGHLRATEKMKTRELHRESSNFDSIYICPSTFACAQLATGAACRLVEAVLSGEVLNGAAVVRPPGHHAEQDAACGFCFFNSVAVAARHAQTISGHALRILIVDWDVHHGNGTQHMFEDDPSVLYVSLHRYDHGTFFPMGDEGASSQIGRAAGTGFTVNVAWNGPRMGDADYLAAWHRLVLPIAYEFNPELVLVSAGFDAARGDPLGGCQVSPEGYAHLTHLLMGLASGRIILILEGGYNLTSISESMAACTRSLLGDPPPLLTLPRPPLSGALASITETIQVHRRYWRSLRVMKVEDREGPSSSKLVTKKAPQPAKPRLAERMTTREKKVLEAGMGKVTSASFGEESTPGQTNSETAVVALTQDQPSEAATGGATLAQTISEAAIGGAMLGQTTSEEAVGGATPDQTTSEETVGGAILDQTTSEDAVGGATLGQTTSEEAVGGATLAQTTSEAAMEGATLDQTTSEEAPGGTELIQTPLASSTDHQTPPTSPVQGTTPQISPSTLIGSLRTLELGSESQGASESQAPGEENLLGEAAGGQDMADSMLMQGSRGLTDQAIFYAVTPLPWCPHLVAVCPIPAAGLDVTQPCGDCGTIQENWVCLSCYQVYCGRYINGHMLQHHGNSGHPLVLSYIDLSAWCYYCQAYVHHQALLDVKNIAHQNKFGEDMPHPH
Km [3]: 16 µM

B4: Histone deacetylase 8 (Homo sapiens), Q9BY41 (protein)
chain: MEEPEEPADSGQSLVPVYIYSPEYVSMCDSLAKIPKRASMVHSLIEAYALHKQMRIVKPKVASMEEMATFHTDAYLQHLQKVSQEGDDDHPDSIEYGLGYDCPATEGIFDYAAAIGGATITAAQCLIDGMCKVAINWSGGWHHAKKDEASGFCYLNDAVLGILRLRRKFERILYVDLDLHHGDGVEDAFSFTSKVMTVSLHKFSPGFFPGTGDVSDVGLGKGRYYSVNVPIQDGIQDEKYYQICESVLKEVYQAFNPKAVVLQLGADTIAGDPMCSFNMTPVGIGKCLKYILQWQLATLILGGGGYNLANTARCWTYLTGVILGKTLSSEIPDHEFFTAYGPDYVLEITPSCRPDRNEPHRIQQILNYIKGNLKHVV
Km [4]: 190 µM

B5: Histone deacetylase 4 (Homo sapiens), P56524 (protein)
chain: MSSQSHPDGLSGRDQPVELLNPARVNHMPSTVDVATALPLQVAPSAVPMDLRLDHQFSLPVAEPALREQQLQQELLALKQKQQIQRQILIAEFQRQHEQLSRQHEAQLHEHIKQQQEMLAMKHQQELLEHQRKLERHRQEQELEKQHREQKLQQLKNKEKGKESAVASTEVKMKLQEFVLNKKKALAHRNLNHCISSDPRYWYGKTQHSSLDQSSPPQSGVSTSYNHPVLGMYDAKDDFPLRKTASEPNLKLRSRLKQKVAERRSSPLLRRKDGPVVTALKKRPLDVTDSACSSAPGSGPSSPNNSSGSVSAENGIAPAVPSIPAETSLAHRLVAREGSAAPLPLYTSPSLPNITLGLPATGPSAGTAGQQDAERLTLPALQQRLSLFPGTHLTPYLSTSPLERDGGAAHSPLLQHMVLLEQPPAQAPLVTGLGALPLHAQSLVGADRVSPSIHKLRQHRPLGRTQSAPLPQNAQALQHLVIQQQHQQFLEKHKQQFQQQQLQMNKIIPKPSEPARQPESHPEETEEELREHQALLDEPYLDRLPGQKEAHAQAGVQVKQEPIESDEEEAEPPREVEPGQRQPSEQELLFRQQALLLEQQRIHQLRNYQASMEAAGIPVSFGGHRPLSRAQSSPASATFPVSVQEPPTKPRFTTGLVYDTLMLKHQCTCGSSSSHPEHAGRIQSIWSRLQETGLRGKCECIRGRKATLEELQTVHSEAHTLLYGTNPLNRQKLDSKKLLGSLASVFVRLPCGGVGVDSDTIWNEVHSAGAARLAVGCVVELVFKVATGELKNGFAVVRPPGHHAEESTPMGFCYFNSVAVAAKLLQQRLSVSKILIVDWDVHHGNGTQQAFYSDPSVLYMSLHRYDDGNFFPGSGAPDEVGTGPGVGFNVNMAFTGGLDPPMGDAEYLAAFRTVVMPIASEFAPDVVLVSSGFDAVEGHPTPLGGYNLSARCFGYLTKQLMGLAGGRIVLALEGGHDLTAICDASEACVSALLGNELDPLPEKVLQQRPNANAVRSMEKVMEIHSKYWRCLQRTTSTAGRSLIEAQTCENEEAETVTAMASLSVGVKPAEKRPDEEPMEEEPPL
Km [5]: 10.3 µM

B6: Histone deacetylase 3 (Homo sapiens), O15379 (protein)
chain: MAKTVAYFYDPDVGNFHYGAGHPMKPHRLALTHSLVLHYGLYKKMIVFKPYQASQHDMCRFHSEDYIDFLQRVSPTNMQGFTKSLNAFNVGDDCPVFPGLFEFCSRYTGASLQGATQLNNKICDIAINWAGGLHHAKKFEASGFCYVNDIVIGILELLKYHPRVLYIDIDIHHGDGVQEAFYLTDRVMTVSFHKYGNYFFPGTGDMYEVGAESGRYYCLNVPLRDGIDDQSYKHLFQPVINQVVDFYQPTCIVLQCGADSLGCDRLGCFNLSIRGHGECVEYVKSFNIPLLVLGGGGYTVRNVARCWTYETSLLVEEAISEELPYSEYFEYFAPDFTLHPDVSTRIENQNSRQYLDQIRQTIFENLKMLNHAPSVQIHDVPADLLTYDRTDEADAEERGPEENYSRPEAPNEFYDGDHDNDKESDVEI
Km [6]: 6 µM
